These are literature values, as cited in PMC5606850.

The target of the series is HTLV-1 nucleocapsid NTD (Human T-cell leukemia virus type 1) (UniProt P03345).
Chain of HTLV-1 nucleocapsid NTD (Human T-cell leukemia virus type 1) (P03345 345-395): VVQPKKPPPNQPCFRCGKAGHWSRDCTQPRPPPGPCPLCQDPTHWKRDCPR

Chain of HTLV-1 nucleocapsid CTD (P03345 396-429): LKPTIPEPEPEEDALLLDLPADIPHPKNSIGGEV

“HTLV-1 nucleocapsid CTD (from UniProt P03345)”: the Kd is 0.2 µM.
